From publication PMC10075960, “Inhibition of FAM46/TENT5 activity by BCCIPα adopting a unique fold” (Science Advances, 2023)

B4: BCCIPα-ΔS (residues 50 to 322 with deletions of residues 112 to 122, 235 to 243, and 273 to 276) (domain or fragment, human, UniProt Q9P287-2 50-322, looked up)
chain: DEVIDEEVNIEFEAYSLSDNDYDGIKKLLQQLFLKAPVNTAELTDLLIQQNHIGSVIKQTDVEVFGFISLLNLTERKGTQCVEQIQELVLRFCEKNCEKSMVEQLDKFLNDTTKPVGLLLSERFINVPPQIALPMYQQLQKELAGAHRTNKPCGKCYFYLLISKTFVEAGKNNSAALMFANAEEEFFYEEQGKPEVLGGPDTRPVPIQHNGGSRGQVTALVSLKAGLIQSRSTLSDFQGTFMTVGIALS
notes: human BCCIPα residues 50 to 322 with three loop deletions; source: E. coli BL21 (DE3), purified (Ni-NTA, on-column 3C cleavage, Resource Q); not shown: His6, N-terminal, cleaved

What was measured:
[1] = molecular target: T1, Full-length human FAM46C with a FLAG-tag (human, UniProt Q5VWP2 1-391); experiment: cell-based or functional assay
T1 sequence (looked up): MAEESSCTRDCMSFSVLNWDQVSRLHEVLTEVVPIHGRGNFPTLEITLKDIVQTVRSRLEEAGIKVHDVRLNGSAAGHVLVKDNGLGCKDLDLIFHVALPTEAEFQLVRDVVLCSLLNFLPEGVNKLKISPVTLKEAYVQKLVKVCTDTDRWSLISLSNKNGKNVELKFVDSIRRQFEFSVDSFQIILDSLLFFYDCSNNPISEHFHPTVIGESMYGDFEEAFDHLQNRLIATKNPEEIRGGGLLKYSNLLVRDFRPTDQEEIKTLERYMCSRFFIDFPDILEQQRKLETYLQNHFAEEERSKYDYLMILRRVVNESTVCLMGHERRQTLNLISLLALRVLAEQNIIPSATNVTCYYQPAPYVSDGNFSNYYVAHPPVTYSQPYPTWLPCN

[2] = molecular target: T2, Full-length human FAM46A with a FLAG-tag (human, UniProt Q96IP4 1-442); experiment: cell-based or functional assay
T2 sequence (looked up): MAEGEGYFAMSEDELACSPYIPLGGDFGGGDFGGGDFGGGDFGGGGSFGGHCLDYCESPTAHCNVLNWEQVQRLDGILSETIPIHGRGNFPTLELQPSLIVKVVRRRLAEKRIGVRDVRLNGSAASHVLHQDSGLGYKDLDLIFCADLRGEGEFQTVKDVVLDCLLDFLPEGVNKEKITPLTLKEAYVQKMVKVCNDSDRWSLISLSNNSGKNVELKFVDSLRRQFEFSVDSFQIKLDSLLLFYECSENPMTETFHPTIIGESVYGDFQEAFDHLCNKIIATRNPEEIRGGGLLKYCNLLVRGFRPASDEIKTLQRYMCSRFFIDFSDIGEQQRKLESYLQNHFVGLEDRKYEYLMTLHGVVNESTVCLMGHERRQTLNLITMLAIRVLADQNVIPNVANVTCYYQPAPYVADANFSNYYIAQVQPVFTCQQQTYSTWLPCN

[3] = molecular target: T3, FAM46A (residues 64 to 394) (human, UniProt Q96IP4 64-394); experiment: crystal structure; FAM46A (64-394) with BCCIPα-ΔS (3.5 Å) or BCCIPα-ΔL (3.2 Å); complexes mixed 1:1 and purified on Superdex 200; conditions: both partners purified
T3 construct: human FAM46A (TENT5A) residues 64 to 394; also called TENT5A; source: E. coli BL21 (DE3), purified (Ni-NTA, on-column 3C cleavage, Resource Q); not shown: His6, N-terminal, cleaved
T3 sequence (looked up): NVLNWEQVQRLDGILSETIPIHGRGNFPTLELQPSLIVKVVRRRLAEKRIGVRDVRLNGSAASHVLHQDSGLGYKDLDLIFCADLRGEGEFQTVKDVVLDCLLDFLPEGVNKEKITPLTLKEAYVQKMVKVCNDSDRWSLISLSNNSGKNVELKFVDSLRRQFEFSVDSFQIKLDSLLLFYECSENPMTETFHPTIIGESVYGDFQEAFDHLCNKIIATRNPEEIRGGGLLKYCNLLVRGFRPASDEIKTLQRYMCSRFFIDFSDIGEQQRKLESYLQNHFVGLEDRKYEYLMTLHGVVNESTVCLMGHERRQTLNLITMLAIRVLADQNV

FAM46C/BCCIPα-ΔS complex = molecular target: T4, FAM46C/BCCIPα-ΔS complex (human, UniProt Q5VWP2 1-391; Q9P287-2 50-322, deletions of residues 112 to 122 | deletions of residues 235 to 243 | deletions …); experiment: cryo-EM structure; FAM46C/BCCIPα-ΔS/Nb.1 mixed 1:1:2, purified on Superdex 200; filament segments treated as single particles, D2 symmetry, 6.5 Å; models docked as rigid bodies; conditions: both partners purified
T4 construct: human FAM46C (TENT5C), as m15; Avi-tagged, biotinylated FAM46C residues 15 to 350 in the nanobody screening; human BCCIPα residues 50 to 322 with three loop deletions, as m12; with Nb.1 it forms a 4:4:4 assembly of four 1:1:1 units and filaments; also called FAM46C/BCCIPα complex; FAM46C/BCCPα complex; source: E. coli BL21 (DE3), each protein purified, then mixed; not shown: His6, N-terminal, …

[4] = molecular target: B4; experiment: as above; conditions: both partners purified

B1: BCCIPα with a Myc-tag (natural protein, human, UniProt Q9P287-2 1-322, looked up)
chain: MASRSKRRAVESGVPQPPDPPVQRDEEEEKEVENEDEDDDDSDKEKDEEDEVIDEEVNIEFEAYSLSDNDYDGIKKLLQQLFLKAPVNTAELTDLLIQQNHIGSVIKQTDVSEDSNDDMDEDEVFGFISLLNLTERKGTQCVEQIQELVLRFCEKNCEKSMVEQLDKFLNDTTKPVGLLLSERFINVPPQIALPMYQQLQKELAGAHRTNKPCGKCYFYLLISKTFVEAGKNNSKKKPSNKKKAALMFANAEEEFFYEEQGKPEVLGGPDTRRGLEPVPIQHNGGSRGQVTALVSLKAGLIQSRSTLSDFQGTFMTVGIALS
mean nucleus/cytoplasm intensity ratio of FAM46C in U2OS cells coexpressing BCCIPα (immunofluorescence; 1.94 without BCCIPα) [1]: 3.04 | mean nucleus/cytoplasm intensity ratio of FAM46A in U2OS cells coexpressing BCCIPα (immunofluorescence; 1.90 without BCCIPα) [2]: 2.85

B2: BCCIPα-ΔL (residues 50 to 322 with deletions of residues 112 to 122 and 231 to 280) (domain or fragment, human, UniProt Q9P287-2 50-322, looked up)
chain: DEVIDEEVNIEFEAYSLSDNDYDGIKKLLQQLFLKAPVNTAELTDLLIQQNHIGSVIKQTDVEVFGFISLLNLTERKGTQCVEQIQELVLRFCEKNCEKSMVEQLDKFLNDTTKPVGLLLSERFINVPPQIALPMYQQLQKELAGAHRTNKPCGKCYFYLLISKTFVEAGQHNGGSRGQVTALVSLKAGLIQSRSTLSDFQGTFMTVGIALS
notes: human BCCIPα residues 50 to 322 with two loop deletions; source: E. coli BL21 (DE3), purified (Ni-NTA, on-column 3C cleavage, Resource Q); not shown: His6, N-terminal, cleaved
binding result [3]: binds

B3: Nb.1 (VHH)
VHH: QVQLQESGGGLVQAGGSLRLSCAASGTISPRGVMGWYRQAPGKEREFVAAINYGGTTYYADSVKGRFTISRDNAKNTVYLQMNSLKPEDTAVYYCAVYYYINSQRKVLLYWGQGTQVTVSS
notes: nanobody selected from a synthetic yeast-display library; cloned into a modified pET28 vector; also called nanobody Nb.1
stoichiometry N (FAM46C/BCCIPα-ΔS complex): 1 | binding result [4]: binds

B4
binding result [3]: binds
